Experimental findings from patent publication US20180022822A1, “NOVEL ANTI-FIBROBLAST ACTIVATION PROTEIN (FAP) BINDING AGENTS AND USES THEREOF” (Mabimmune Diagnostics AG, priority 2016, published 2018) are described below.

The subject of assay [1] is MOPC315.BM multiple myeloma cells and tumor stroma. Put plainly: immunofluorescence on murine multiple myeloma bone tissue. The arrangement: species or system mouse. The settings on record: Cy5 labelled antibody, bone sections. How it is done:
BALB/c mice were injected with 2×10^6 of the murine multiple myeloma cell line […] intravenously. BALB/c mice were injected with a vehicle-only control. Bone tissue was harvested and fixed in 4% PFA, decalcified in 10% EDTA (pH 7.4), embedded in paraffin before being sectioned (4 μm) and rehydrated. Then, CD138 mAb (Clone 281-2, BD Pharmingen) and Cy5 labelled NI-206.82C2 were used to identify MOPC315.BM.Luc cell infiltration, and NI-206.82C2 binding to these cells and surrounding stromal cells in the tissue sections. Stained tissue sections were then imaged using a fluorescent microscope (FIG. 13).

In assay [2] the target is T1, active recombinant mouse FAP (Mus musculus, UniProt P97321).
T1 construct: expressed in a HEK293 cell line without the transmembrane and intracellular domains and an N-terminal 6× histidine tag; made in house; host or cells: HEK293
T1 sequence (P97321 26-761 limits assumed): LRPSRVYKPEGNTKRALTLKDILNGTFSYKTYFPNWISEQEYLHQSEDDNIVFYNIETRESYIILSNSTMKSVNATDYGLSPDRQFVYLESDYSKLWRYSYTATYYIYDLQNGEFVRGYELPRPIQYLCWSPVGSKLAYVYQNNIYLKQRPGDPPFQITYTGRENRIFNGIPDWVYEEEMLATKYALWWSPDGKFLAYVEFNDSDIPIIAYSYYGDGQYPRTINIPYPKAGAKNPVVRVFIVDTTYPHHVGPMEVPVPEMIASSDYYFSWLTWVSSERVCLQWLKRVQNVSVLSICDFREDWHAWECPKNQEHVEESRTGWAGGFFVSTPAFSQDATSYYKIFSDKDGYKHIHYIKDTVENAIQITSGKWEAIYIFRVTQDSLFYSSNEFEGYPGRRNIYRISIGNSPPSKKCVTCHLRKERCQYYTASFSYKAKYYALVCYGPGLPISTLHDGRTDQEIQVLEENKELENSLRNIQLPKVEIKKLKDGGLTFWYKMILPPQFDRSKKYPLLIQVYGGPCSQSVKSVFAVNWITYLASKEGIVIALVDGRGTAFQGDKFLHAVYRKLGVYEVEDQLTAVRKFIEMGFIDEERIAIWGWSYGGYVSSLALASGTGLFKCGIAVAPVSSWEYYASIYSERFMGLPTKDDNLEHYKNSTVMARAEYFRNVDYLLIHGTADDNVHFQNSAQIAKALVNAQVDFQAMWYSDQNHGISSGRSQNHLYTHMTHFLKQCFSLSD
Put plainly: DQ-gelatin cleavage inhibition, active recombinant mouse FAP. Type of assay: biochemical. How it is done: To determine the inhibitory ability of NI-206.82C2 against active recombinant murine FAP, recombinant murine FAP was expressed in a HEK293 cell line without the transmembrane and intracellular domains and an N-terminal 6× histidine tag. A 96-well ELISA plate was then coated with 50 uL of murine anti-His tag antibody at 6 μg/mL in PBS overnight at 4° C. The wells were then blocked with 60 μL of 2% BSA in PBS for 1 h at room temperature, and 50 μL of recombinant mouse FAP containing cell culture supernatant diluted 1:4 was added to the well and incubated overnight at 4C while gently shaking. Following three washing steps with PBS, 20 uL of sterile 12.5% BSA/PBS solution was added to all wells.

For assay [3], the system named is CT-26 syngeneic liver metastasis. Nature of the assay: immunofluorescence on murine CT-26 colorectal cancer tissue sections. The arrangement: species or system mouse. Conditions: Cy5 labelled antibody, 10 μg/mL. How it is done: NI-206.82C2 was prelabelled with Cyanine 5 antibody labeling kit (Innova Biosciences, 342-0010), and sufficient antibody labelling was validated with a photospectrometer. Cryosections of mouse livers containing syngeneic CT-26 liver metastasis were allowed to dry for 30 min at room temperature the fixed for 10 min in 4% formalin in PBS. Slides were then washed 3 times for 5 minutes in PBS and blocked for 1 hr at room temperature with 5% bovine serum albumin in PBS.
The slides were then incubated overnight at 4° C. with staining solution containing DAPI at 0.5 μg/mL, and Alexa 547 phalloidin (Invitrogen) according to the manufacturer's instructions, and either Cy5 labelled NI-206.82C2 or a Cy5 labelled isotype-matched control antibody 3A1 at a concentration of 10 μg/mL, in blocking solution with 0.5% Triton X100. Slides were then washed 3 times in PBS, mounted in Lisbeth's mounting medium, and imaged with an SP8 confocal microscope (Leica Microsystems).

Another assay concerns the target T2, recombinant human FAP (Homo sapiens, UniProt Q12884).
T2 construct: purchased Sino Biologicals 10464-H07H
T2 sequence (Q12884 26-760 limits assumed): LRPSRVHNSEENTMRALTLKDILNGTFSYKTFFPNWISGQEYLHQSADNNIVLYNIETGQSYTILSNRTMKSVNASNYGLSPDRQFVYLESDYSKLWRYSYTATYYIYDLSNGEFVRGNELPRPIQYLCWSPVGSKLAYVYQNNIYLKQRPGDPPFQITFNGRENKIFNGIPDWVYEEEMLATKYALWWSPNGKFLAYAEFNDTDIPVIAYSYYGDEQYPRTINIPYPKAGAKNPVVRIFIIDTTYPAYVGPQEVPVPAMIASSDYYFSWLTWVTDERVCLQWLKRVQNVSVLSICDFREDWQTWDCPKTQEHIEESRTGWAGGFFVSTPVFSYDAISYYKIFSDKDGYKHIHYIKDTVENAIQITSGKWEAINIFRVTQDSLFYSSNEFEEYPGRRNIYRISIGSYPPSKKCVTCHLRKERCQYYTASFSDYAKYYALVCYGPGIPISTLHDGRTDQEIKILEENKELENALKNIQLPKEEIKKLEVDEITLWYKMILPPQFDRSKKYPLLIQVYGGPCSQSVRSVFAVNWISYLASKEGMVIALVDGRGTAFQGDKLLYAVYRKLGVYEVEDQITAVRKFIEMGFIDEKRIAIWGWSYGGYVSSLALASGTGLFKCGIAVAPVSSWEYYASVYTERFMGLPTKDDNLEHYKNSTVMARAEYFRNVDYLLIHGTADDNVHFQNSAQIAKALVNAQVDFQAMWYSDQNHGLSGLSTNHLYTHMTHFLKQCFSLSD
Nature of the assay: mechanism of inhibition of rhuFAP-mediated PEP (Z-Gly-Pro-AMC) cleavage. Type of assay: biochemical. The settings on record: 0-1000 nM antibody, 20-100 μM Z-Gly-Pro-AMC; Lineweaver-Burk. How it is done: A black flat bottom standard 96-well ELISA plate was blocked for 1 hr at 37° C. using sterile blocking buffer: 5% bovine serum albumin (BSA) in phosphate buffered saline (PBS). 10 μL of recombinant human FAP solution: 0.4 nM recombinant human FAP (Sino Biologicals, 10464-H07H), in 225 mM Sodium phosphate buffer, pH 7.4) was added to each well. Then, 80 μL of NI-206.82C2 at the indicated concentrations in PBS were added to the wells incubated for 1 hr at 37° C. Then, 10 μL of fluorogenic substrate solution (Z-Gly-Pro-AMC in 40% methanol and 60% 25 […]) was added to each well. The fluorescence intensity was measured at 360 nm excitation and 460 nm emission every 3 min over a total reading time of 2 hr.

B1: NI-206.82C2: human-derived recombinant anti-FAP antibody; VH SEQ ID NO: 2 or 4 (PIMC), VL SEQ ID NO: 6 (antibody, V domains shown)
VH: QVQLQQSGPGLVKPSQTLSLTCAISGDSVSSNSVTWNWIRQSPSRGLEWLGRTYYRSKWYNDYAVSVKGRITINPDTSKNQFYLQLKSVTPEDAAVYYCARDSSILYGDYWGQGTLVTVSS
VL: QAVLTQPSSLSASPGASASLTCTLPSGINVGTYRIFWFQQKPGSPPQYLLSYKSDSDNHQGSGVPSRFSGSKDASANAGILLISGLQSEDEADYYCMIWHSSAWVFGGGTKLTVL
With B1, in assay [1], the “binding in the syngeneic MOPC315.BM mouse model” value is “binds to multiple myeloma cells and tumor stroma”. The “potency for inhibiting active recombinant mouse FAP compared to Val-boro-Pro and F19” value in assay [2] is “higher potency”. The “staining of murine CT-26 liver metastasis sections” value in assay [3] was “found around the perimeter”. In addition, in the assay with recombinant human FAP, the “type of inhibition of FAP-mediated PEP cleavage” value is listed as “non-competitive inhibitor”.
